Consider 39 sequences from the supplement of paper PMC7877785.

The nature of the data set: self-splicing fitness, log relative to wild type (ln ratio); higher = more splicing; Tetrahymena group I intron in knt gene, E. coli kanamycin selection, DiMSum; sequences stand for … in CUCUCU…GGAGGGAAAAGUUAUCAGGCAUGCACCUGGUAGCUAGUCUUUAAACCAAUAGAUUGCAUCGGUUUAAAAGGCAAGACCGUCAAAUUGCGGGAAAGGGGUCAACAGCCGUUCAGUACCAAGUCUCAGGGGAAACUUUGAGAUGGCCUUGCAAAGGGUAUGGUAAUAAGCUGACGGACAUGGUCCUAACCACGCAGCCAAGUCCUAAGUCAACAGAUCUUCUGUUGAUAUGGAUGCAGUUCACAGACUAAAUGUCGGUCGGGGAAGAUGUAUUCUUCUCAUAAGAUAUAGUCGGACCUCUCCUUAAUGGGAGCUAGCGGAUGAAGUGAUGCAACACUGGAGCCGCUGGGAACUAAUUUGUAUGCGAAAGUAUAUUGAUUAGUUUUGGAGUACUCGUGGUCG
Summed up:
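Fitness was computed with DiMSum as the error-weighted combination of replicate fold changes, kanamycin versus none, each normalised to wild type. The library randomised all eight intron nucleotides of the P1ex region, with the intron placed in the knt kanamycin-resistance gene on pET-22b(+) in E. coli BL21(DE3). Six replicate transformations were grown overnight at 37°C or 30°C on LB agar with or without 25 μg/mL kanamycin, plus 100 μg/mL carbenicillin, 50 μM IPTG and 0.2% rhamnose. Pooled colonies were amplicon-sequenced on an Illumina HiSeq 2500.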

± gives the uncertainty stated by the source.

For GUGAAGCAAUAUUACGGUUA, the “self-splicing fitness (ln)” value is -0.24 ± 0.054 (30 °C) and 0.132 ± 0.086 (37 °C).

CACAAGCAAUAUUACGUGCU: the “self-splicing fitness (ln)” value is -3.93 ± 0.18 (30 °C) and -2.79 ± 0.15 (37 °C).

As for CACGAGCAAUAUUACGUUCG, the “self-splicing fitness (ln)” value is -4.18 ± 0.29 (30 °C) and -2.75 ± 0.21 (37 °C).

For the sequence GUAAAGCAAUAUUACGCACC, the “self-splicing fitness (ln)” value (30 °C) was -0.664 ± 0.49.

As to AACAAGCAAUAUUACGUUCG, the “self-splicing fitness (ln)” value was -2.86 ± 0.1 (30 °C) and -1.76 ± 0.13 (37 °C).

Turning to GCACAGCAAUAUUACGCCCC, the “self-splicing fitness (ln)” value (30 °C) is -0.949 ± 0.12 and the “self-splicing fitness (ln)” value (37 °C) was -0.0642 ± 0.15.

With CUAUAGCAAUAUUACGGGUC, the “self-splicing fitness (ln)” value was -3.19 ± 0.29 (30 °C) and -2.05 ± 0.28 (37 °C).

Consider UCAAAGCAAUAUUACGUGAG, for which the “self-splicing fitness (ln)” value by setting is: (30 °C) -0.64 ± 0.046; (37 °C) -0.25 ± 0.071.

As to AUUGAGCAAUAUUACGCCAU, the “self-splicing fitness (ln)” value runs as follows: (30 °C) -3.54 ± 0.24; (37 °C) -1.69 ± 0.19.

Regarding ACUCAGCAAUAUUACGCGUG, the “self-splicing fitness (ln)” value is -1.35 ± 0.073 (30 °C) and -0.547 ± 0.081 (37 °C).

Consider GUAUAGCAAUAUUACGUCUC, for which the “self-splicing fitness (ln)” value (30 °C) is -1.21 ± 0.15 and the “self-splicing fitness (ln)” value (37 °C) was -0.282 ± 0.15.

Regarding UUUCAGCAAUAUUACGGUCA, the “self-splicing fitness (ln)” value came out at 0.101 ± 0.12 (30 °C) and 0.222 ± 0.13 (37 °C).

For the sequence GAUGAGCAAUAUUACGUUGC, the “self-splicing fitness (ln)” value (30 °C) is -4.01 ± 0.39 and the “self-splicing fitness (ln)” value (37 °C) was -3 ± 0.35.

As to GCAUAGCAAUAUUACGGAAA, the “self-splicing fitness (ln)” value was -1.6 ± 0.31 (30 °C) and -1.88 ± 0.25 (37 °C).

For GUAGAGCAAUAUUACGCGUG, the “self-splicing fitness (ln)” value is, setting by setting: (30 °C) -1.18 ± 0.11; (37 °C) -0.777 ± 0.18.

In the case of UGCAAGCAAUAUUACGGUAC, the “self-splicing fitness (ln)” value is, setting by setting: (30 °C) -4.35 ± 0.39; (37 °C) -2.38 ± 0.21.

As for CGGAAGCAAUAUUACGCUAC, the “self-splicing fitness (ln)” value is, setting by setting: (30 °C) -2.38 ± 0.24; (37 °C) -3.01 ± 0.47.

On to ACUGAGCAAUAUUACGCUCU, for which the “self-splicing fitness (ln)” value was -3.59 ± 0.2 (30 °C) and -2.31 ± 0.24 (37 °C).

As for UACCAGCAAUAUUACGCAGA, the “self-splicing fitness (ln)” value reads like this: (30 °C) -1.24 ± 0.11; (37 °C) -0.165 ± 0.11.

Regarding GAUCAGCAAUAUUACGCGCA, the “self-splicing fitness (ln)” value by setting is: (30 °C) 0.225 ± 0.092; (37 °C) -0.0411 ± 0.1.

Turning to CAUAAGCAAUAUUACGACGU, the “self-splicing fitness (ln)” value is, setting by setting: (30 °C) -2.51 ± 0.14; (37 °C) -1.27 ± 0.15.

Regarding AAGAAGCAAUAUUACGAAUC, the “self-splicing fitness (ln)” value reads like this: (30 °C) -2.91 ± 0.15; (37 °C) -2.64 ± 0.26.

For GCUAAGCAAUAUUACGACAU, the “self-splicing fitness (ln)” value (30 °C) was -0.734 ± 0.013 and the “self-splicing fitness (ln)” value (37 °C) is -0.156 ± 0.033.

Turning to AUGAAGCAAUAUUACGUGGU, the “self-splicing fitness (ln)” value is, setting by setting: (30 °C) -1.71 ± 0.07; (37 °C) -1.31 ± 0.087.

Turning to UCAAAGCAAUAUUACGUGCA, the “self-splicing fitness (ln)” value by setting is: (30 °C) -0.542 ± 0.048; (37 °C) 0.0292 ± 0.065.

Regarding GUCUAGCAAUAUUACGCUAU, the “self-splicing fitness (ln)” value was -1.54 ± 0.11 (30 °C) and -0.228 ± 0.1 (37 °C).

Take ACCCAGCAAUAUUACGGCCA: the “self-splicing fitness (ln)” value by setting is: (30 °C) -1.17 ± 0.075; (37 °C) -0.171 ± 0.09.

Turning to GAUCAGCAAUAUUACGGCUC, the “self-splicing fitness (ln)” value worked out at 0.00813 ± 0.1 (30 °C) and 0.687 ± 0.12 (37 °C).

Take CAUUAGCAAUAUUACGCUUU: the “self-splicing fitness (ln)” value is, setting by setting: (30 °C) -3.35 ± 0.23; (37 °C) -1.06 ± 0.16.

For the sequence AAAGAGCAAUAUUACGCACA, the “self-splicing fitness (ln)” value (37 °C) is -0.789 ± 0.28.

Take UAAUAGCAAUAUUACGCAAG: the “self-splicing fitness (ln)” value is, setting by setting: (30 °C) -1.92 ± 0.29; (37 °C) -1.04 ± 0.25.

Regarding CCAAAGCAAUAUUACGCUUG, the “self-splicing fitness (ln)” value is, setting by setting: (30 °C) -3.7 ± 0.18; (37 °C) -2.93 ± 0.2.

With UGAAAGCAAUAUUACGUGAU, the “self-splicing fitness (ln)” value runs as follows: (30 °C) -0.954 ± 0.077; (37 °C) -1.45 ± 0.13.

Turning to GCAGAGCAAUAUUACGCACU, the “self-splicing fitness (ln)” value (37 °C) is -3.43 ± 0.43.

In the case of ACAAAGCAAUAUUACGUCCC, the “self-splicing fitness (ln)” value was -0.873 ± 0.23 (30 °C) and -1.78 ± 0.25 (37 °C).

Turning to AGUCAGCAAUAUUACGUCGC, the “self-splicing fitness (ln)” value was -1.65 ± 0.13 (30 °C) and -1.14 ± 0.19 (37 °C).

As for UCCAAGCAAUAUUACGCCAU, the “self-splicing fitness (ln)” value (30 °C) was -4.34 ± 0.28 and the “self-splicing fitness (ln)” value (37 °C) is -3.21 ± 0.27.

On to UAACAGCAAUAUUACGAUUU, for which the “self-splicing fitness (ln)” value (30 °C) was -1.47 ± 0.056 and the “self-splicing fitness (ln)” value (37 °C) was -0.218 ± 0.065.

Regarding ACCCAGCAAUAUUACGAUAC, the “self-splicing fitness (ln)” value was -2.94 ± 0.17 (30 °C) and -0.588 ± 0.13 (37 °C).
